The assay addresses CUB_C (CUB module and C-terminal peptide from human TSG-6), wild type (human) (UniProt P98066). As to the kind of experiment: SPR; CUB_C (WT or E183S) amine-coupled to a CM5 chip (~1000 RU); rHC1 (WT or D298A) injected at 30 ul/min in 20 mM HEPES, 150 mM NaCl, 0.05% Tween 20, pH 7.4 (HBS-T), no EDTA (as purified CUB_C contains Ca2+); multicycle kinetics, 1:1 Langmuir model. In general terms: In SPR one partner is held on a chip, and binding of the other changes the refractive index at the surface.

B1: Recombinant human heavy chain 1 (rHC1) of inter-alpha-inhibitor, wild type (natural protein)
chain: SKSSEKRQAVDTAVDGVFIRSLKVNCKVTSRFAHYVVTSQVVNTANEAREVAFDLEIPKTAFISDFAVTADGNAFIGDIKDKVTAWKQYRKAAISGENAGLVRASGRTMEQFTIHLTVNPQSKVTFQLTYEEVLKRNHMQYEIVIKVKPKQLVHHFEIDVDIFEPQGISKLDAQASFLPKELAAQTIKKSFSGKKGHVLFRPTVSQQQSCPTCSTSLLNGHFKVTYDVSRDKICDLLVANNHFAHFFAPQNLTNMNKNVVFVIDISGSMRGQKVKQTKEALLKILGDMQPGDYFDLVLFGTRVQSWKGSLVQASEANLQAAQDFVRGFSLDEATNLNGGLLRGIEILNQVQESLPELSNHASILIMLTDGDPTEGVTDRSQILKNVRNAIRGRFPLYNLGFGHNVDFNFLEVMSMENNGRAQRIYEDHDATQQLQGFYSQVAKPLLVDVDLQYPQDAVLALTQNHHKQYYEGSEIVVAGRIADNKQSSFKADVQAHGEGQEFSITCLVDEEEMKKLLRERGHMLENHVERLWAYLTIQELLAKRMKVDREERANLSSQALQMSLDYGFVTPLTSMSIRGMADQDGLKPTIDKPSEDSPPLEMLGPRRTFVLSALQPSPTHSSSNTQRLPDRVTGVDTD
One may read the Kd as the equilibrium constant for the complex coming apart. Higher therefore signals a looser complex. For B1, the Kd was determined as 2.1 nM.

These data come from publication PMC4661386.
